Columns and labels:
[1] = biological target: T1, human PSMA expressed with an N-terminal hexahistidine tag (6h.hPSMA, R&D) (human, UniProt Q04609 44-750); test: SPR Biacore T-200, 37 C, antibody-capture (anti-human Fc), 6h.hPSMA as analyte
T1 construct: Bought soluble protein; also called soluble human PSMA; human PSMA protein
Description: In this example, anti-PSMA antibodies were assessed for their ability to bind to human PSMA. […] Measurements were conducted on a Biacore™ T-200 instrument (GE Healthcare).
Briefly, a CM5 Biacore™ sensor surface was derivatized via amine coupling with a monoclonal mouse anti-human Fc antibody (GE, # BR-1008-39) or monoclonal goat anti-mouse Fc antibody (GE, # BR-1008-38) to capture purified anti-PSMA antibodies. Binding studies were performed in HBSP++ buffer composed of 0.01M HEPES, 0.15M NaCl, 2 mM Ca²⁺, 2 mM Mg²⁺, 0.05% v/v Surfactant P20, pH7.4. Varying concentrations of human PSMA expressed with an N-terminal hexahistidine tag (6h.hPSMA, R&D) prepared in HBSP++ running buffer (ranging from 50 to 0.78 nM, 4-fold dilutions) were injected over the anti-PSMA antibody captured surface at a flow rate of 30 μL/minute. Antibody-reagent association was monitored for 2 minutes while dissociation in HBSP++ running buffer was monitored for 8 minutes.
Kinetic association (kₐ) and dissociation (kd) rate constants were determined by fitting the real-time sensorgrams to a 1:1 binding model using Scrubber 2.0c curve fitting software. Binding dissociation equilibrium constants (KD) and dissociative half-lives (t½) were calculated from the kinetic rate constants as: KD (M)=kd/kₐ; and t_{1/2} (min)=(ln 2/(60*kd).

[2] = biological target: human CD3 expressed on cells (Jurkat cells; human T-cells of PBMC) (human, UniProt P09693 23-182; P20963 22-164); test: cell-based or functional assay
human CD3 expressed on cells (Jurkat cells; human T-cells of PBMC), sequence (chain, as listed by the source, chain 1 of 4): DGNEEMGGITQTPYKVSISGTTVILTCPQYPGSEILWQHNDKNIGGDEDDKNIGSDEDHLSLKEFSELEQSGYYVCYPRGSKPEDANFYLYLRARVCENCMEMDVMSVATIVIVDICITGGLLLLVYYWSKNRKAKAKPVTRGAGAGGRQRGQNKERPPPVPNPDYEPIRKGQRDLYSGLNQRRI
human CD3 expressed on cells (Jurkat cells; human T-cells of PBMC), sequence (chain, as listed by the source, chain 2 of 4): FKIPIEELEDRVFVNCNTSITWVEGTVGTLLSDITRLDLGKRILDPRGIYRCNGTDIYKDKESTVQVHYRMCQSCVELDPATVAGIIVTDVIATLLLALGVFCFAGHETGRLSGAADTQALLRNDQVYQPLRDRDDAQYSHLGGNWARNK
human CD3 expressed on cells (Jurkat cells; human T-cells of PBMC), sequence (P09693 23-182, chain 3 of 4): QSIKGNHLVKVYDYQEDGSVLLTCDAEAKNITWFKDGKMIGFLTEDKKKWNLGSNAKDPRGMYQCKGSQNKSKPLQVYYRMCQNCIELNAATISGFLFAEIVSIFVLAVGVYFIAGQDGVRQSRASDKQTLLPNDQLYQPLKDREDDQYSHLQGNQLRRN
human CD3 expressed on cells (Jurkat cells; human T-cells of PBMC), sequence (P20963 22-164, chain 4 of 4): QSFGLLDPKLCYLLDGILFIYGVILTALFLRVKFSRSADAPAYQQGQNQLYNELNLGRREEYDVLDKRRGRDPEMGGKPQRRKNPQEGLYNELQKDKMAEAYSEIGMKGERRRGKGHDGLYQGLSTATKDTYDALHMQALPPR

T1 sequence (Q04609 other isoform, or with tags, fused parts or gaps limits assumed): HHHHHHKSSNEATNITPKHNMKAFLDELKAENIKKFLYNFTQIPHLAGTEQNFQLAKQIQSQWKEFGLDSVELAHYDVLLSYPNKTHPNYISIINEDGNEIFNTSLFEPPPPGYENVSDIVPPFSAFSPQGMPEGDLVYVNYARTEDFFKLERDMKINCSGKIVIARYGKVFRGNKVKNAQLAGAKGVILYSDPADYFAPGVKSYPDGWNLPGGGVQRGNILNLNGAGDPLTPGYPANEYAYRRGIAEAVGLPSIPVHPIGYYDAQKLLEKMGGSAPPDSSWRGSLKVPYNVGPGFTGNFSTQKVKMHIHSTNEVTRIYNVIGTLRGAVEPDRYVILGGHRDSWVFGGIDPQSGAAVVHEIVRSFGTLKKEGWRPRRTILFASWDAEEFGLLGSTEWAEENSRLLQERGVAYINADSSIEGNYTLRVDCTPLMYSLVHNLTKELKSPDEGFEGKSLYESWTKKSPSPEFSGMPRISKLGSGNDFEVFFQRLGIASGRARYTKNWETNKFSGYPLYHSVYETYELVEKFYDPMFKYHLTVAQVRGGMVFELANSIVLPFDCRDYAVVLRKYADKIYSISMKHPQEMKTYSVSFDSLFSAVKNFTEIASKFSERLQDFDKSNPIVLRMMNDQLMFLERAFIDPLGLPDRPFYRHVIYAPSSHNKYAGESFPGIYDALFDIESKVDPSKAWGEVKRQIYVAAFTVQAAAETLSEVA

B1: H1H11804P2 (antibody, human IgG1, V domains shown)
VH: QVQLVESGGGVVQPGRSLRLSCAASGFTFISYGMHWVRQAPGKGLEWVAVISYDGSNKYYADSVKGRFTISRDNSKNTLFLQMNSLRAEDTAVYYCAKNYDFWNGYVGYYGMDVWGQGTTVTVSS
VL: DIQMTQSPSSLSASVGDSVTITCRASQSINNYLNWYQQKPGKAPKLLIYTASSLLSGVPSRFSGSGSGTDFTLTISGLHPEDFATYFCQQSFSTPPITFGQGTRLDIK
notes: human IgG1
Kd [1]: 39.4 nM | koff [1]: 0.000801 s⁻¹ | kon [1]: 20300 M⁻¹ s⁻¹ | t1/2 [1]: 14.4 min

B2: H1H11838P2 (antibody, human IgG1, V domains shown)
VH: QVQLVESGGGVVQPGRSLRLSCAASGFTFSSYGMHWVRQAPGKGLEWVAFMSYDGSNKFYSDSVKGRFTISRDNSRKMLFLQMNNLRAEDTAVYYCARDQYYDFLTDHGVFDYWGQGTLVTVSS
VL: DIQMTQSPSSLSASVGDSVTITCRASQSINNYLNWYQQKPGKAPKLLIYTASSLLSGVPSRFSGSGSGTDFTLTISGLHPEDFATYFCQQSFSTPPITFGQGTRLDIK
notes: human IgG1
Kd [1]: 1.99 nM | koff [1]: 0.000471 s⁻¹ | kon [1]: 237000 M⁻¹ s⁻¹ | t1/2 [1]: 24.5 min

B3: H1H11835P2 (antibody, human IgG1, V domains shown)
VH: EVQLVESGGGLVQSGGSLRLSCEASGFTFSNYWMTWIRQGPGKGLEWVANIKPDGTENYYVDSVKGRFTISRDNARNSLYLQMTSLKAEDTAVYYCGRMIQFVINIWGQGTLVTVSS
VL: DIQMTQSPSSLSASVGDSVTITCRASQSINNYLNWYQQKPGKAPKLLIYTASSLLSGVPSRFSGSGSGTDFTLTISGLHPEDFATYFCQQSFSTPPITFGQGTRLDIK
notes: human IgG1
Kd [1]: 14 nM | koff [1]: 0.00246 s⁻¹ | kon [1]: 175000 M⁻¹ s⁻¹ | t1/2 [1]: 4.7 min

B4: H1H11805P2 (antibody, human IgG1, V domains shown)
VH: EVQLVESGGGLVQPGGSLRLSCVVSGFTFNNYWMSWVRQAPGKGLEWVANIKKDGSEKYYVDSVKGRFTISRDNAKNSLYLQMNSLRAEDTAVYYCARDIMATIIDWGQGTLVTVSS
VL: DIQMTQSPSSLSASVGDSVTITCRASQSINNYLNWYQQKPGKAPKLLIYTASSLLSGVPSRFSGSGSGTDFTLTISGLHPEDFATYFCQQSFSTPPITFGQGTRLDIK
notes: human IgG1
Kd [1]: 75.6 nM | koff [1]: 0.00974 s⁻¹ | kon [1]: 129000 M⁻¹ s⁻¹ | t1/2 [1]: 1.2 min

B5: H1H11808P2 (antibody, human IgG1, V domains shown)
VH: QVQLVESGGGVVQPGRSLRLSCAASGFPFNSYGMHWVRQAPGKGLEWVAVISYDGSNRYYADSVKGRFTISRDNSKYTLDLHVSSLTTDDTAVYYCARDRRYGKWEQLYPDYLGQGTLVTVSS
VL: DIQMTQSPSSLSASVGDSVTITCRASQSINNYLNWYQQKPGKAPKLLIYTASSLLSGVPSRFSGSGSGTDFTLTISGLHPEDFATYFCQQSFSTPPITFGQGTRLDIK
notes: human IgG1
Kd [1]: ≤ 0.0563 nM | koff [1]: ≤ 1e-05 s⁻¹ | kon [1]: 178000 M⁻¹ s⁻¹ | t1/2 [1]: ≥ 1160 min

B6: H2M2690N (antibody, mouse IgG2, V domains shown)
VH: EVQLVESGGGLVQPGRSLRLSCAASGFTFDDYTMHWVRQAPGKGLEWVSGISWNSGSIGYADSVKGRFTISRDNAKKSLYLQMNSLRAEDTALYYCAKDNSGYGHYYYGMDVWGQGTTVTVAS
VL: EIVMTQSPATLSVSPGERATLSCRASQSVSSNLAWYQQKPGQAPRLLIYGASTRATGIPARFSGSGSGTEFTLTISSLQSEDFAVYYCQHYINWPLTFGGGTKVEIK
U937 Cytotoxicity Human T-cells [2]: 27.9 pM

B7: H2M2710N (antibody, V domains shown)
VH: QVQLVESGGGVVQPGRSLRLSCAASGFTFRSFGMHWVRQAPGRGLEWVAMIYFDGKNKYYADSVRGRFTISRDNSKNTLYLEMSSLRAEDTAVYFCARGPGYNWLDPWGQGTLVTVSS
VL: EIVMTQSPATLSVSPGERATLSCRASQSVSRNLAWYQQKPGQAPRLLIYGASTRATGVPARFSGSGSGTEFTLTISSLQSEDFAVFHCQQYNNRPLTFGGGTEVEIK
U937 Cytotoxicity Human T-cells [2]: 3.97 pM

B8: H2M2706N (antibody, mouse IgG2, V domains shown)
VH: QVQLVESGGGVVQPGRSLRLSCAASGFTFRSYAMHWVRQAPGKGLEWVAMVYYDGNNQYYADSVRGRFTISRDNSKNTLYLQMNSLRADDTAVYFCARGPGYNWLDPWGQGTLVTVSS
VL: EIVMTQSPATLSVSPGERATLSCRASQSVSRNLAWYQQKPGQAPRLLIYGASTRATGIPARFSGSGSGTDFTLTISSLQSEDFAVYYCQQYNNWPLTFGGGTKVVIK
U937 Cytotoxicity Human T-cells [2]: 7.91 pM

B9: H2M2777N (antibody, mouse IgG2, V domains shown)
VH: QVQLVESGGGVVQPGRSLRLSCIASGFTFRSYGMHWVRQAPGKGLEWVAMIYYDGNNKYYADSVRGRFTISRDNSKNTLYLQMNSLRADDTAVYFCARGPGYNWLDPWGQGTLVTVSS
VL: EIVMTQSPATLSVSPGERATLSCRASQSVSSNLAWYQQKPGQAPRLLIYGASTRATGIPARFSGSGSGTEFTLTISSLQSEDFAVYYCQQYNNRPLTFGGGTKVEIK
U937 Cytotoxicity Human T-cells [2]: 4.86 pM

B10: H2M2774N (antibody, mouse IgG2, V domains shown)
VH: QVQLVESGGGVVQPGRSLRLSCVASGFTFRSYGMHWVRQAPGKGLQWVAMIYYDGKNKYYADSVRGRFTISRDNSKNTLYLQMNSLRAEDTAMYFCARGPGYNWLDPWGQGTLVTVSS
VL: EIVMTQSPATLSVSPGERATLSCRASQRISSNLAWYQQKPGQAPRLLIYGASTRATGSPARFSGSGSGTEFTLTISSLQSEDVAVYYCQQHNNWPLTFGGGTKVEIK
U937 Cytotoxicity Human T-cells [2]: 2.46 pM

B11: H2M2705N (antibody, mouse IgG2, V domains shown)
VH: QVQLVESGGGVVQPGRSLRLACVASGFTFRSYGMHWVRQAPGKGLQWVAMIYYDGKNKYYADSVRGRFTISRDNSKNTLYLQMNNLRVEDTAMYFCARGPGYNWLDPWGQGTLVTVSS
VL: EIVMTQSPATLSVSPGERATLSCRASQRISSNLAWYQQKPGQAPRLLIYGASTRATGSPARFSGSGSGTDFTLTISSLQSEDVAVYYCQQHHNWPLTFGGGTKVEIK
U937 Cytotoxicity Human T-cells [2]: 1.73 pM

B12: H2M2691N (antibody, mouse IgG2, V domains shown)
VH: EVQLVESGGGLVQPGRSLRLSCAASGFTFDDYTMHWVRQAPGKGLEWVSGISWNSGSIGYADSVKGRFTISRDNAKKSLYLQMNSLRAEDTALYYCAKDNSGYGHYYYGMDVWGQGTTVTVAS
VL: EIVMTQSPATLSVSPGERATLSCRASQSVSSNLAWYQQKPGQAPRLLIYGASTRATGIPARFSGSGSGTEFTLTISSLQSEDFAVYYCQHYINWPLTFGGGTKVEIK
U937 Cytotoxicity Human T-cells [2]: 23.4 pM

B13: H1M2692N (antibody, mouse IgG1, V domains shown)
VH: EVQLVESGGGLVQPGGSLRLSCAASGFSFDDYTMHWVRQPPGKGLEWVSGISWNSGSIGYADSVKGRFTISRDNAKNSLYLQMNSLRAGDTALYYCAKDNSGYGYYYYYGMDVWGQGTTVTVSS
VL: EIVMTQSPATLSVSPGERATLSCRASQSVSSNLAWYQQKPGQAPRLLIYGASTRATGIPARFSGSGSGTEFTLTISSLQSEDFAVYYCQQYYNWPLTFGGGTKVEIK
U937 Cytotoxicity Human T-cells [2]: 359 pM

B14: H2M2711N (antibody, V domains shown)
VH: QVQLVESGGGVVQPGRSLRLSCAASGFTFRSFGMHWVRQAPGRGLEWVAMIYFDGKNKYYADSVRGRFTISRDNSKNTLYLEMSSLRAEDTAVYFCARGPGYNWLDPWGQGTLVTVSS
VL: EIVMTQSPATLSVSPGERATLSCRASQSVSRNLAWYQQKPGQAPRLLIYGASTRATGVPARFSGSGSGTEFTLTISSLQSEDFAVFHCQQYNNRPLTFGGGTEVEIK
U937 Cytotoxicity Human T-cells [2]: 3.66 pM

B15: H2M2707N (antibody, mouse IgG2, V domains shown)
VH: QVQLVESGGGVVQPGRSLRLSCIASGFTFRSYGMHWVRQAPGKGLEWVAMIYYDGNNKYYADSVRGRFTISRDNSKNTLYLQMNSLRADDTAVYFCARGPGYNWLDPWGQGTLVTVSS
VL: EIVMTQSPATLSVSPGERATLSCRASQSVSSNLAWYQQKPGQAPRLLIYGASTRATGIPARFSGSGSGTEFTLTISSLQSEDFAVYYCQQYNNRPLTFGGGTKVEIK
U937 Cytotoxicity Human T-cells [2]: 7.21 pM

B16: H2M2708N (antibody, mouse IgG2, V domains shown)
VH: QVQLVESGGGVVQPGRSLRLSCAASGFTFRSFGMHWVRQAPGRGLEWVAMIYFDGKNKYYADSVRGRFTISRDNSKNTLYLEMSSLRAEDTAVYFCARGPGYNWLDPWGQGTLVTVSS
VL: EIVMTQSPATLSVSPGERVTLSCRASQSISRNLAWYQQKPGQAPRLLIYGASTRATGVPARFSGSGSGTEFTLTISSLQSEDFAVFHCQQYNNRPLTFGGGTEVEIK
U937 Cytotoxicity Human T-cells [2]: 3.27 pM

B17: H1M2712N (antibody, mouse IgG1, V domains shown)
VH: EVQLVESGGGLVQPGGSLRLSCAATGFTFDDFTMHWVRQAPGKGLEWVSGISWNSGSIGYVDSVKGRFTISRDNAKNSLYLQMNSLRAEDTALYYCAKDNSGYGYYYYGMDVWGQGTTVTVSS
VL: EIVMTQSPATLSVSPGERATLSCRASHSVSRNSAWYQQKPGQAPRLLIYGASTRATGIPARFSGSGSGTEFTLTISSLQSEDFAIYYCQQYNNWPLTFGGGTKVEIK
U937 Cytotoxicity Human T-cells [2]: 314 pM

B18: H2M2775N (antibody, mouse IgG2, V domains shown)
VH: QVQLVESGGGVVQPGRSLRLSCAASGFTFRSFGMHWVRQAPGRGLEWVAMIYFDGKNKYYADSVRGRFTISRDNSKNTLYLEMSSLRAEDTAVYFCARGPGYNWLDPWGQGTLVTVSS
VL: EIVMTQSPATLSVSPGERVILSCRASQSISRNLAWYQQKPGQAPRLLIYGATTRATGVPARFSGSGSGTEFTLTISSLQSEDFAVFYCQQYNNRPLTFGGGTEVEIK
U937 Cytotoxicity Human T-cells [2]: 3.38 pM

B19: H2M2689N (antibody, mouse IgG2, V domains shown)
VH: QVQLVESGGGVVQPGRSLRLSCAASGFTFSRKGMHWVRQAPVKGLEWVAVISYDGSNKYYADSVKGRFTISRDNSKNTLYLQMNSLTAEDTAVYYCAKEGGHDYGGTFDYWGQGTLVTVSS
VL: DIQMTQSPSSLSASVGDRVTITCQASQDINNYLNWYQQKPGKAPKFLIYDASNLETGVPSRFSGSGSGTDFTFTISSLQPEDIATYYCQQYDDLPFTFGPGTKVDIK
U937 Cytotoxicity Human T-cells [2]: 0 pM

From patent US20190127480A1 (Regeneron, published 2019)
